Measurements from paper PMC11347163, “Structural analysis of the BisI family of modification dependent restriction endonucleases”.

Tests used:
[1] = target: Eco15I_Ntd (N-terminal catalytic domain of Eco15I) (Escherichia coli strain 541-15); assay: crystal structure; sitting drop vapor diffusion at 18°C; proteins crystallised without DNA and as specific complexes with tetra-methylated GCNGC dsDNA, with Ca2+
[2] = target: NhoI (Nitrolancea hollandica); assay: as above
[3] = target: T1, Eco15I_Ntd (N-terminal catalytic domain of Eco15I) (UniProt A0A0L6ZWS4); assay: crystal structure; Ca2+ in active site; SPR: 20 mM HEPES pH 7.8, 50 or 150 mM KCl, 1 mM CaCl2, 1 mM DTT, 0.05% Tween-20, 25 C; EMSA: 20 mM HEPES pH 7.8, 50 mM KCl, 1 mM DTT, 1 mM CaCl2, on ice 30 min, unlabeled unmodified oligo or salmon sperm DNA competitor; conditions: protein: recombinant; tags: 6xHis-SUMO removed by Ulp1; chain copies: 2; blunt
T1 sequence: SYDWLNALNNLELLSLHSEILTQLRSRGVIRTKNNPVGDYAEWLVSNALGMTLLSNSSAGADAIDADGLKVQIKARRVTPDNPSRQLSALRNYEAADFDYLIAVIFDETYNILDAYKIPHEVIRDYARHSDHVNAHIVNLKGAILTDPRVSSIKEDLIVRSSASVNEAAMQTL

[4] = target: T1, Eco15I_Ntd (N-terminal catalytic domain …); assay: SPR; 1 mM Ca2+; 50 mM KCl; SPR: 20 mM HEPES pH 7.8, 50 or 150 mM KCl, 1 mM CaCl2, 1 mM DTT, 0.05% Tween-20, 25 C; EMSA: 20 mM HEPES pH 7.8, 50 mM KCl, 1 mM DTT, 1 mM CaCl2, on ice 30 min, unlabeled unmodified oligo or salmon sperm DNA competitor; conditions: protein: recombinant; tags: 6xHis-SUMO removed by Ulp1; chain copies: 2; label: 5' biotin
[5] = target: T2, Eco15I_Ctd (C-terminal domain of Eco15I) (UniProt A0A0L6ZWS4); assay: as above; conditions: protein: recombinant; label: 5' biotin
T2 sequence: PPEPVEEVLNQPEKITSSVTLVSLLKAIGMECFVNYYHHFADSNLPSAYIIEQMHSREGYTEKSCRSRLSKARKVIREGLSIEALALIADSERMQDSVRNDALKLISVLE

NhoI = target: T3, NhoI (UniProt I4EG67); assay: crystal structure; Ca2+ in active site; SPR: 20 mM HEPES pH 7.8, 50 or 150 mM KCl, 1 mM CaCl2, 1 mM DTT, 0.05% Tween-20, 25 C; EMSA: 20 mM HEPES pH 7.8, 50 mM KCl, 1 mM DTT, 1 mM CaCl2, on ice 30 min, unlabeled unmodified oligo or salmon sperm DNA competitor; conditions: protein: recombinant; tags: 6xHis-SUMO removed by Ulp1; chain copies: 2; blunt
T3 sequence: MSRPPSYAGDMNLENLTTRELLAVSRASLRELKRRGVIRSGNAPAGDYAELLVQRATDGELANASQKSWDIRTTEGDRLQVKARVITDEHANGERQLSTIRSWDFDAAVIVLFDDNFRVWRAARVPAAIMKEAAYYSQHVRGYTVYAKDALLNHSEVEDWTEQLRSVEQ

## Eco15I_Ntd (N-terminal catalytic domain of Eco15I) (domain or fragment)
[1]
  stoichiometry N: 2

## NhoI (enzyme)
[2]
  stoichiometry N: 2

B1: Eco15I_Ntd co-crystal duplex, tetramethylated GCAGC (dsDNA)
DNA 1: AAGCAGCAA
DNA 2: TTGCTGCTT
modifications: 5mC at positions 4 and 7 of strand 1; 5mC at positions 4 and 7 of strand 2
[3]
  binding result: binds

B2: SPR duplex, four 5mC in GCNGC (dsDNA)
DNA 1: CGGTTGAGCAGCACCTCAGA
DNA 2: TCTGAGGTGCTGCTCAACCG
modifications: 5mC at both internal and both external cytosines
[4]
  binding result: binds
[5]
  binding result: no binding

B3: NhoI co-crystal duplex, tetramethylated GCAGC (dsDNA)
DNA 1: CTGCAGCTC
DNA 2: GAGCTGCAG
modifications: 5mC at positions 4 and 7 of strand 1; 5mC at positions 4 and 7 of strand 2
NhoI
  binding result: binds
